The target of assay [1] is bovine cation-independent mannose 6-phosphate receptor domains 1-15 (entire extracellular region) (bovine) (UniProt P08169). The assay is described as follows: SPR; bovine CI-MPR d1-15 amine coupled to a CM5 chip, tPA injected at various concentrations, 25 °C, response at equilibrium fit with a one site specific binding model. A general note: Surface plasmon resonance follows binding to a sensor surface in real time, without labels.

The target in assay [2] is human cation-independent mannose 6-phosphate receptor domains 1-5 (human) (UniProt P11717). In words: SPR; C-terminally biotinylated human CI-MPR d1-5 on a streptavidin chip; tPA injected at various concentrations, one site specific binding fit; tPA at 120 nM with 5 mM M6P or 5 mM G6P.
Sequence of human cation-independent mannose 6-phosphate receptor domains 1-5 (human) (P11717 36-763): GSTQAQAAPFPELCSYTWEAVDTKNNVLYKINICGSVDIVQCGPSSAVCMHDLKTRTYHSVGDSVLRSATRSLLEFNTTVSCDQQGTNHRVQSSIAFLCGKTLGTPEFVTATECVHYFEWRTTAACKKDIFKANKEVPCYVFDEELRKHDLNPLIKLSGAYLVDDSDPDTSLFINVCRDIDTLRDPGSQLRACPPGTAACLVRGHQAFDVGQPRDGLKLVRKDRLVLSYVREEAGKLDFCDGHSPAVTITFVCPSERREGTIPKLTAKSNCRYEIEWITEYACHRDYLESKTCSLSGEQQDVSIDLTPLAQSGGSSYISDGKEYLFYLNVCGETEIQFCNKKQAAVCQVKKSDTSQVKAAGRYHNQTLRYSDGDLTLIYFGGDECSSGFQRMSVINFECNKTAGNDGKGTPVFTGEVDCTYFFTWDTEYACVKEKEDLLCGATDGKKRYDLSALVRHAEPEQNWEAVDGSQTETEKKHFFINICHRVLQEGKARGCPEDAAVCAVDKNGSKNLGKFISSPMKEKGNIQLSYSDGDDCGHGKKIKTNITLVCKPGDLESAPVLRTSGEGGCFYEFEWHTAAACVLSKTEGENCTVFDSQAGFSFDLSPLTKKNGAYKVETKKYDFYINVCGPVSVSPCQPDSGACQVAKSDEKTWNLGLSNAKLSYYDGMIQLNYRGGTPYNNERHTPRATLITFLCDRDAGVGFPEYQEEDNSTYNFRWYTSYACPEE
The target of assay [3] is human cation-independent mannose 6-phosphate receptor domains 1-15 (entire extracellular region) (human) (UniProt P11717). The assay is described as follows: SPR; biotinylated human CI-MPR d1-15 on a streptavidin-coupled CM5 chip, tPA injected at various concentrations, 25 °C, 40 µl/min for 2 min, response at equilibrium fit with a one site specific binding model.
In assay [4] the target is bovine cation-independent mannose 6-phosphate receptor domains 1-15 (entire extracellular region) (bovine) (UniProt P08169). The assay is described as follows: SPR; bovine CI-MPR d1-15 amine coupled; mock- or phosphatase-treated proteins injected in 10 mM HEPES, 150 mM sodium acetate, 5 mM β-glycerophosphate, 0.005% polysorbate-20, pH 7.4; tPA at 80 nM with 5 mM M6P, 5 mM G6P or no inhibitor.

Assay [5] addresses T1, bovine cation-independent mannose 6-phosphate receptor domains 1-15 (entire extracellular region) (bovine, UniProt P08169 47-2296).
T1 construct: cation-independent mannose 6-phosphate receptor (CI-MPR), bovine, domains 1-15, amino acids 47-2296; also called bovine CI-MPR d1-15; CI-MPR d1-15; source: Sf9, secreted, purified (Ni-NTA, Sephacryl S-300)
In words: SPR; recombinant tPA, native tPA or β-glucuronidase amine coupled; bovine CI-MPR d1-15 at 20 nM injected after preincubation with M6P, G6P or αMeMan (0.1, 1.0, 5.0 mM). The note with it: both partners purified.

Sequence of bovine cation-independent mannose 6-phosphate receptor domains 1-15 (entire extracellular region) (bovine) (P08169 47-2296): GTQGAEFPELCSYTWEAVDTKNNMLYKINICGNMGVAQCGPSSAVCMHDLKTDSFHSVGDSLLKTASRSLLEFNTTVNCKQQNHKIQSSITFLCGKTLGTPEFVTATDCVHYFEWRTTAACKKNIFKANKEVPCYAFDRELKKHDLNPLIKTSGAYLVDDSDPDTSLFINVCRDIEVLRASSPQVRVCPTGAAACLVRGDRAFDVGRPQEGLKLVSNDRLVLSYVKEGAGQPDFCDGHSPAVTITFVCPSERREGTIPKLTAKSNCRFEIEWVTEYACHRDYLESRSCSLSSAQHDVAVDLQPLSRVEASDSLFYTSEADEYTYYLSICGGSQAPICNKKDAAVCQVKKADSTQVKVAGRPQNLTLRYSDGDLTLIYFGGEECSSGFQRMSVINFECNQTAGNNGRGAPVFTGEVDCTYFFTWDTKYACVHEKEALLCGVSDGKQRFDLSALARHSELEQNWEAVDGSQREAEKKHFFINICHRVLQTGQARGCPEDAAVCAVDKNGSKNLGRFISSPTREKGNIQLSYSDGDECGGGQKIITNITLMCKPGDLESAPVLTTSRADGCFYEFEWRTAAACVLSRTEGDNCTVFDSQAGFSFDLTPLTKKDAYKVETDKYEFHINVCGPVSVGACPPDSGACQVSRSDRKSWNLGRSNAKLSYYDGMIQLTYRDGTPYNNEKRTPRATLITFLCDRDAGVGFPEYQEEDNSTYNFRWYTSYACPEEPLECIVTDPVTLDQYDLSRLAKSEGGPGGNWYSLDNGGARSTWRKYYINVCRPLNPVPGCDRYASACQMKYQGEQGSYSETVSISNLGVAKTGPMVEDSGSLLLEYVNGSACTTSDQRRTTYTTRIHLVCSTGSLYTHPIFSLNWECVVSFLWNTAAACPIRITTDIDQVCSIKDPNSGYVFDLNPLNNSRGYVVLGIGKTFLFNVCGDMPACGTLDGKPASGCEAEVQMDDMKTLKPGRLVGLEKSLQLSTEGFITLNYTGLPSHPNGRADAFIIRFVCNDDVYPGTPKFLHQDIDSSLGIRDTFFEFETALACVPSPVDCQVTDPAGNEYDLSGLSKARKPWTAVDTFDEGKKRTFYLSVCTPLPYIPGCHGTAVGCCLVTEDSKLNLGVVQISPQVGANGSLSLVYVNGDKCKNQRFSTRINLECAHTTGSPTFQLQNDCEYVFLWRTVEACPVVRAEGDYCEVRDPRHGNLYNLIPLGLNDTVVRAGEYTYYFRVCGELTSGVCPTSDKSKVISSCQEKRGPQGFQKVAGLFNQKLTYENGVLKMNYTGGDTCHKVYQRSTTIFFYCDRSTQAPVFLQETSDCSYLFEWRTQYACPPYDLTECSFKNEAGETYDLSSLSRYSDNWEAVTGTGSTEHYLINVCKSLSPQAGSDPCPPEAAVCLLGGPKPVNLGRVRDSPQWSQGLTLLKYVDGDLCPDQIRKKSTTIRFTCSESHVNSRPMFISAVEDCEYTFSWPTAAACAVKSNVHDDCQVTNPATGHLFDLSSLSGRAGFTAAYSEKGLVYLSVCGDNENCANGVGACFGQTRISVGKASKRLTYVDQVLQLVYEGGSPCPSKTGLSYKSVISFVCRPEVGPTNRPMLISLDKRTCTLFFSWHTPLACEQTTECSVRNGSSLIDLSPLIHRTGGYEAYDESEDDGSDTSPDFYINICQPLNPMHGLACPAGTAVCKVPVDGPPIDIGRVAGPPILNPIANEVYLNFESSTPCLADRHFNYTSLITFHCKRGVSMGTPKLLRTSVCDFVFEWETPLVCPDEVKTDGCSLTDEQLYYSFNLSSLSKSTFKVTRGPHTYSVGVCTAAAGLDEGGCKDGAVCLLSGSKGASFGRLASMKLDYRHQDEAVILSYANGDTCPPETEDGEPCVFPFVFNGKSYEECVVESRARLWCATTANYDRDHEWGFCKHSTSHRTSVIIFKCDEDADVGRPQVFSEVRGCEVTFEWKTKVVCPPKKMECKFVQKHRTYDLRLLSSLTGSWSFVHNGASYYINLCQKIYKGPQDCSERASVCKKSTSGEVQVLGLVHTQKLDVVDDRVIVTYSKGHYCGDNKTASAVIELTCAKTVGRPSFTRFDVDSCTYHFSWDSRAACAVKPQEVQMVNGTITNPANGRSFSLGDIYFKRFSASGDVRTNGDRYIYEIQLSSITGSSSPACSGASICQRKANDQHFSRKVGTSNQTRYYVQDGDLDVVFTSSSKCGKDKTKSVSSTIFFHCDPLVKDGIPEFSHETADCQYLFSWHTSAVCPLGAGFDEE
T1 sequence (P08169 47-2296): as above

In general, Kd refers to a measure of binding affinity in units of concentration. As for “native tissue plasminogen activator isolated from a human melanoma cell line (enzyme)”, the Kd in assay [1] was 214 nM; in assay [2], 155 nM; in assay [3], 81 nM. In assay [2], this molecule showed a percent decrease in response at equilibrium with 5 mM G6P of 21%. The molecule also yielded a percent decrease in response at equilibrium with 5 mM M6P in assay [2] of 39%.

Consider “phosphatase-treated recombinant tissue plasminogen activator (enzyme)”, for which, in assay [4], the percent decrease in response with 5 mM G6P amounted to 12% and the percent decrease in response with 5 mM M6P was determined as 13%.

In turn, “recombinant human tissue plasminogen activator (Cathflo Activase, alteplase) (enzyme)” came in with a Kd in assay [1] of 108 nM. In addition, in assay [2], the Kd was 134 nM, the percent decrease in response at equilibrium with 5 mM G6P was found to be 20% and the percent decrease in response at equilibrium with 5 mM M6P was 40%. The Kd in assay [3] came out at 23 nM. In assay [4], this molecule showed a percent decrease in average response with 5 mM G6P of 26% and a percent decrease in average response with 5 mM M6P of 55%.

B1: human β-glucuronidase (enzyme, UniProt P08236 23-651, looked up)
chain: LQGGMLYPQESPSRECKELDGLWSFRADFSDNRRRGFEEQWYRRPLWESGPTVDMPVPSSFNDISQDWRLRHFVGWVWYEREVILPERWTQDLRTRVVLRIGSAHSYAIVWVNGVDTLEHEGGYLPFEADISNLVQVGPLPSRLRITIAINNTLTPTTLPPGTIQYLTDTSKYPKGYFVQNTYFDFFNYAGLQRSVLLYTTPTTYIDDITVTTSVEQDSGLVNYQISVKGSNLFKLEVRLLDAENKVVANGTGTQGQLKVPGVSLWWPYLMHERPAYLYSLEVQLTAQTSLGPVSDFYTLPVGIRTVAVTKSQFLINGKPFYFHGVNKHEDADIRGKGFDWPLLVKDFNLLRWLGANAFRTSHYPYAEEVMQMCDRYGIVVIDECPGVGLALPQFFNNVSLHHHMQVMEEVVRRDKNHPAVVMWSVANEPASHLESAGYYLKMVIAHTKSLDPSRPVTFVSNSNYAADKGAPYVDVICLNSYYSWYHDYGHLELIQLQLATQFENWYKKYQKPIIQSEYGAETIAGFHQDPPLMFTEEYQKSLLEQYHLGLDQKRRKYVVGELIWNFADFMTEQSPTRVLGNKKGIFTRQRQPKSAAFLLRERYWKIANETRYPHSVAKSQCLENSLFT
modifications: M6P on its N-linked glycans
notes: β-glucuronidase, human, lysosomal enzyme; also called mock-treated β-glucuronidase
As to B1, the binding result in assay [5] is given as “binds”.

The record behind these values is article PMC8050316, “Tissue plasminogen activator is a ligand of cation-independent mannose 6-phosphate receptor and consists of glycoforms that contain mannose 6-phosphate” (Scientific Reports, 2021).
